# Reference: PMC12784932, “Keratin 15 promotes a progenitor cell state in basal keratinocytes of skin epidermis” (The Journal of Cell Biology, 2026)
# T1: EGFP-K14 WT (human keratin 14) (human, UniProt P02533 1-472)
# T1 construct: keratin 14 (K14), human; codon-optimized KRT14 cDNA synthesized by Twist Biosciences; Co-expressed with untagged human K5, its type II copolymerization partner; also called WT K14; source: HeLa, transfected (nucleofection) together with untagged K5, in lysate (detergent-soluble pool)
# T1 sequence (looked up): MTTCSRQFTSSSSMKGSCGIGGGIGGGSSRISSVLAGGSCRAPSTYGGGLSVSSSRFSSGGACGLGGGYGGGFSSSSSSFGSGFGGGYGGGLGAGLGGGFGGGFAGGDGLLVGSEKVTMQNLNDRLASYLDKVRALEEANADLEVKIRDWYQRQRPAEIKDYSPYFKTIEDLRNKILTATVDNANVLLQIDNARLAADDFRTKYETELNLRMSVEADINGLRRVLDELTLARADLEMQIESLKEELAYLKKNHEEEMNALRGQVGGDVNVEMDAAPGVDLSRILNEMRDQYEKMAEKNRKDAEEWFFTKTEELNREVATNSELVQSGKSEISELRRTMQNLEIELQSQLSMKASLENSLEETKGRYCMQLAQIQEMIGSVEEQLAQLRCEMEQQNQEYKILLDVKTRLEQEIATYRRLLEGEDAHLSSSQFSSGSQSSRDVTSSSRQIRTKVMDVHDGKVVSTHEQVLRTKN
# Molecular target: T1, EGFP-K14 WT (human keratin 14)
# Assay: co-IP; GFP-Trap Magnetic Agarose (25 μl beads) on 600 μg lysate of HeLa cells cotransfected with untagged K5 and the EGFP-tagged keratin; lysis in 10 mM Tris/Cl pH 7.5, 150 mM NaCl, 0.5 mM EDTA, 0.5% Nonidet P-40 Substitute (detergent-soluble pool); 4°C, 1 h; western blot for endogenous 14-3-3σ; 14-3-3σ signal normalized to GFP
# Conditions: partners not purified
binder,measurement,value
"14-3-3σ (stratifin) (natural protein, human (endogenous in HeLa), UniProt P31947 1-248, looked up, 14-3-3σ / stratifin, endogenous in HeLa cells; also called stratifin/14-3-3σ; endogenous 14-3-3σ; source: endogenous, HeLa lysate; endogenous, fixed HeLa cells) MERASLIQKAKLAEQAERYEDMAAFMKGAVEKGEELSCEERNLLSVAYKNVVGGQRAAWRVLSSIEQKSNEEGSEEKGPEVREYREKVETELQGVCDTVLGLLDSHLIKEAGDAESRVFYLKMKGDYYRYLAEVATGDDKKRIIDSARSAYQEAMDISKKEMPPTNPIRLGLALNFSVFHYEIANSPEEAISLAKTTFDEAMADLHTLSEDSYKDSTLIMQLLRDNLTLWTADNAGEEGGEAPQEPQS",fold 14-3-3σ in the immunoprecipitate (normalized to GFP) against the EGFP-K15 WT immunoprecipitate,> 2 fold
